Source: US12668611B2, “Cell-penetrating peptide and use thereof” (IMNEWRUN, INC., priority 2020, dated 2026)
Peptide text beside a SMILES is read from it.

Legend:
[1] = system: C57BL/6 mice; experiment: Comparative analysis of in vivo blood-brain barrier (BBB) permeability (two-photon microscopy); parameters: species or system mouse; settings: 15 mg/kg tail vein, imaging for 90 minutes; FIG. 5A-5F
Procedure: Specifically, in order to perform in vivo real-time imaging using a two photon microscopy, operations to install a cranial window were performed in living mice (C57BL/6). Before making the cranial window, inhalation anesthesia was induced with 3% isoflurane in the mice, and the body temperature of the mice was maintained at 36.5° C. to 37.5° C. by using a heating pad. After induction of anesthesia, the concentration of isoflurane was adjusted to 1.5% to maintain anesthesia. In addition, to confirm the degree of maintenance of anesthesia, heart rate and SpO2 were confirmed in real time. Afterwards, craniotomy was performed by using a dental drill in order that the cranial window has a diameter of 3 mm at the skull coordinates of ML, +2.5 mm, and AP, −1.5 mm. After the skull was removed by craniotomy, the brain was covered with a cover glass having a diameter of 4 mm, and the cover glass was adhered by using a cyanoacrylic bond. Next, a head frame, capable of fixing the mouse's head under a two-photon microscope, was attached so that the cover glass would come to the center. After a first bonding of the cover glass and the frame by using the bond, a second bonding was performed and all exposed skulls were covered from the border of the cover glass with dental resin so that imaging could be performed by using a water immersion lens. […]

[2] = system: hCMEC/D3 cell line; experiment: Comparative analysis of cell permeation effect through flow cytometry; type: cell-based, human; settings: 10 μM, 2 hours, p<0.0001, FIG. 4
Procedure: First, with respect to the transpep-1-FITC and angiopep-2-FITC prepared in Example 1-2, an amount of fluorescence inflow into a single cell was identified and quantified through flow cytometry. Specifically, an hCMEC/D3 cell line was aliquoted at 15,000 cells/well using an EGM culture medium containing 2% bovine calf serum (BCS), and 24 hours later, cells were treated with each of the two peptides at a concentration of 10 μM, and then were incubated for 2 hours at 37° C., under CO2 conditions. Thereafter, the cells were washed with 1×PBS, and then were separated from the bottom of the plate by incubating for 3 minutes after 1.1% trypsinase-EDTA (TE) was added, and then an EGM cell culture solution of about 3 times the amount of TE was added, and the sample was centrifuged at 100 rpm for 5 minutes. Next, the supernatant was removed by suction, and the cells were resuspended in 250 μl of 1×PBS, and then transferred to a BD Falcon 12×75 mm Tube with Cell Strainer Cap, and inflow of fluorescence according to each peptide was analyzed by flow cytometry.

[3] = system: hCMEC/D3 cells, which are human blood-brain barrier cells; experiment: In vitro cell permeability analysis (FITC fluorescence imaging, Cytation 5); type: cell-based; settings: peptides linked to FITC, 4 μM, 2 hours, FIG. 1
Procedure: The present inventors performed in vitro cell permeability analysis on a total of 12 candidate peptides synthesized in Example 1 above. Specifically, hCMEC/D3 cells, which are human blood-brain barrier cells, were seeded in a 96-well plate at 18,000 cells/well, and incubated overnight at 37° C. under CO2 conditions in a endothelial cell growth medium (EGM), which is an […], until the cells reached 80% to 90% of the plate area. Subsequently, the 12 candidate peptides linked to FITC prepared in Example 1-2 and FITC alone, a negative control, were diluted in the medium to 4 μM to prepare an amount to be treated by 100 μl per well. Subsequently, the culture solution was removed from the cell culture plate by suction, and the peptide was diluted and treated with the solution prepared in advance, and then cultured at 37° C. under CO2 conditions for 2 hours. […] After incubation, DAPI and GFP fluorescence were image read by using a Cytation 5 equipment, and the cell nucleus was parcellated with DAPI by image processing. Subsequently, a value of 20 μM of FITC around the cell nucleus was measured, divided by DAPI to obtain a mean-FITC value, and the value was corrected with a value of FITC experimental group, a negative control group, to calculate permeability in the blood-brain barrier cells. […]

Molecule	amount delivered to the extravascular area compared to angiopep-2-FITC [1]	fluorescence in the intravascular region (in vivo stability) compared to angiopep-2-FITC [1]	fluorescence intensity (inflow into single cell) compared to angiopep-2-FITC [2]	cell permeability (FITC fluorescence) [3]
CC(C)C[C@H](NC(=O)[C@H](CCCNC(=N)N)NC(=O)[C@H](CCC(=O)O)NC(=O)[C@H](Cc1c[nH]cn1)NC(=O)[C@H](Cc1c[nH]cn1)NC(=O)CNC(=S)Nc1ccc2c(c1)C(=O)OC21c2ccc(O)cc2Oc2cc(O)ccc21)C(=O)N[C@@H](CCCCN)C(=O)N[C@@H](CO)C(=O)N[C@@H](CC(=O)O)C(=O)N[C@@H](CCC(=O)O)C(=O)N[C@@H](Cc1c[nH]c2ccccc12)C(=O)N[C@@H](CO)C(=O)N[C@H](C(=O)N[C@H](C(=O)N[C@@H](CO)C(=O)NCC(=O)O)[C@@H](C)O)C(C)C [transpep-1-FITC] (HELM PEPTIDE1{[O=C1OC2(c3ccc(O)cc3Oc3cc(O)ccc32)c2ccc(NC(=S)[*:2])cc21].G.H.H.E.R.L.K.S.D.E.W.S.V.T.S.G}$$$$V2.0)	greater	higher in vivo stability		
GHHERLKSDEWSVTSG (transpep-1)			significantly higher	confirmed to have cell permeability
